# Reference: patent US20240209076A1
# Tests used:
# VEGF-A165 [1] = target: VEGF-A165 (UniProt P15692); experiment: SPR (Biacore T200), 37 C, binder captured on a Protein A chip, VEGF-A165 0.19 to 15 nM flowed over, 1:1 Langmuir fit
# VEGF = VEGF (UniProt P15692); experiment: cell-based or functional assay
# VEGF-A165 [2] = target: VEGF-A165 (UniProt P15692); experiment: Biacore SPR at 37 C, binder captured on Protein A chip, VEGF-A165 0.19 to 15 nM in five steps, 1:1 Langmuir fit
# VEGF-A165 [3] = target: VEGF-A165 (UniProt P15692); experiment: Biacore T200 SPR at 37 C, binder captured on Protein A chip, VEGF-A165 0.19 to 15 nM in five steps, 60 min dissociation, 1:1 Langmuir fit
# Chain of VEGF-A165 (P15692 other isoform, or with tags, fused parts or gaps limits assumed): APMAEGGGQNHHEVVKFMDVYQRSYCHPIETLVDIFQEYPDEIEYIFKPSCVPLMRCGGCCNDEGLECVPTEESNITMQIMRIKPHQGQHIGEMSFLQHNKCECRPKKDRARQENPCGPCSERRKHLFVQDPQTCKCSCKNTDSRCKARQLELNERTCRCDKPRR
# Chain of Eylea (Fc fusion) (chain): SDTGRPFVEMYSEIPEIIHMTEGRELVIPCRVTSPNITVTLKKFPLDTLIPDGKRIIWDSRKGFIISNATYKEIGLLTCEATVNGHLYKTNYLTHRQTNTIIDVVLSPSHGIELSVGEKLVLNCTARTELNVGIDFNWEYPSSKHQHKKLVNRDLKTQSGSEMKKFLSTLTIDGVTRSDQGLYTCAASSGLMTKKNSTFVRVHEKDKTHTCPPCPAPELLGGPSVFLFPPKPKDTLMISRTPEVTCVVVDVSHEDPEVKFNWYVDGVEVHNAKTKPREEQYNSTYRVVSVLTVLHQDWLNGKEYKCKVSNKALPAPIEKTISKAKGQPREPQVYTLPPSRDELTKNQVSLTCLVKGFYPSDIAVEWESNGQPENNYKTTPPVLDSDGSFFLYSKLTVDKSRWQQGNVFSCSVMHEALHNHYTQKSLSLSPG
# Chain of VEGF (P15692 other isoform, or with tags, fused parts or gaps limits assumed): as the sequence (P15692 other isoform, or with tags, fused parts or gaps limits assumed) above
substance,measurement,setting,value
Eylea (Fc fusion),Kd,VEGF-A165 [1],6.22 pM
same,"cell based VEGF stimulated VEGFR reporter assay, average IC50",VEGF,0.35 nM
same,Kd,VEGF-A165 [2],0.0157 nM
same,Kd,VEGF-A165 [3],5.35 pM
